{
  "source": "patent US20240398951A1",
  "about": "(WISTAR INSTITUTE OF ANATOMY AND BIOLOGY, published 2024)",
  "target": "T1, human follicle stimulating hormone receptor (FSHR) (human, UniProt P23945 18-695)",
  "T1 sequence (looked up)": "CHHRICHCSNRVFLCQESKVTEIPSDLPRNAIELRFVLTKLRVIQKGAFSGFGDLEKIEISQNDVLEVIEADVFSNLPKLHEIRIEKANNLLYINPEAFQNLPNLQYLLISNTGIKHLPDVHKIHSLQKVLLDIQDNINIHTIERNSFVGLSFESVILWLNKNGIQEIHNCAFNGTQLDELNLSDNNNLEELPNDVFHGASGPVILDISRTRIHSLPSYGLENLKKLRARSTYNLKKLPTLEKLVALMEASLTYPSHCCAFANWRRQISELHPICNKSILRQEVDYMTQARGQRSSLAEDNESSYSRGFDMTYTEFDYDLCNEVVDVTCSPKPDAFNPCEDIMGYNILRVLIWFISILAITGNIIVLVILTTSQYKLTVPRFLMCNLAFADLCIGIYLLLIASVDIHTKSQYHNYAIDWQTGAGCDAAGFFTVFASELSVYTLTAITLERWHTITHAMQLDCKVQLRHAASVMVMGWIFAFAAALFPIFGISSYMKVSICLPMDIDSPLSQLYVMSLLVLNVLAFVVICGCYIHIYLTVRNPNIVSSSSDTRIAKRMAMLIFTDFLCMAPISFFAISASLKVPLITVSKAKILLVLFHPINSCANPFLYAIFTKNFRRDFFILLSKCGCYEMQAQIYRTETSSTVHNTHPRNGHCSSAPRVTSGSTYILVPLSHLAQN",
  "test": "cell-based or functional assay",
  "data": [
    {"binder": "D2AP11-TCE (FSHRxCD3 DNA encoded bispecific T cell engager) (bispecific antibody) DIQMTQSPSSLSASVGDRVTISCRASESVDNYGISFLNWFQQKPGKAPKLLIYAASNQRSGVPSRFSGSGSGTDFTLTISSLQPEDFATYFCQQSKEVPWTFGQGTKVEIKRGGGGSGGGGSGGGGSEVQLVESGGGLVQPGGSLRLSCSFSGFSLSTSGMGVGWIRQAPGKGLEWVAHIWWDDDKRYNPALKSRFTLSVDRSKNTLYLQMNSLRAEDTATYYCVQINYGNYRFDNWGHGTLVTVSSGGGGSEVQLVESGGGLVQPGGSLRLSCAASGYSFTGYTMNWVRQAPGKGLEWVALINPYKGVSTYNQKFKDRFTISVDKSKNTAYLQMNSLRAEDTAVYYCARSGYYGDSDWYFDVWGQGTLVTVSSGGGGSGGGGSGGGGSDIQMTQSPSSLSASVGDRVTITCRASQDIRNYLNWYQQKPGKAPKLLIYYTSRLESGVPSRFSGSGSGTDYTLTISSLQPEDFATYYCQQGNTLPWTFGQGTKVEIKSS", "values": [
      {"measurement": "EC50 of dose dependent killing of OVCAR3 cells (xCELLigence, human PBMCs/T cells)", "result": 0.0159, "unit": "µg/mL"},
      {"measurement": "EC50 of dose dependent killing of OVISE-FSHR cells (xCELLigence, human PBMCs/T cells)", "result": 0.0247, "unit": "µg/mL"},
      {"measurement": "EC50 of killing of OVCAR4 cells in presence of human PBMCs (xCELLigence)", "result": 0.0113, "unit": "µg/mL"},
      {"measurement": "potency of killing of OVCAR4 cells compared to the anti-FSHR ab D2AP11", "result": "~1000", "unit": "fold"}
    ]}
  ]
}
